Values of other authors as cited in patent US20210106646A1, “Combination Of A Novel Topical Gel And Oral Supplements For Healing Diabetic Foot And Other Wounds” (Smart Products & Services Inc. (dba Aloevive), priority 2019, published 2021).

Conditions: topical use, per product website

Regranex Gel: Regranex (becaplermin) Gel is a recombinant human platelet-derived growth factor used to treat lower extremity diabetic ulcers
rare but serious side effects: allergic reactions such as rash, itching, swelling (especially of the face/tongue/throat), dizziness, and trouble breathing
